From the nanobody polyreactivity screen of Harvey et al. (2022)

Test: yeast display, Sf9 membrane polyspecificity reagent, FACS + sequencing; frameworks hold sequencing errors
Method in brief: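 Using colony PCR, genes from sorted yeast display clones were amplified, then sequenced on MiSeq at 2 × 250 and filtered by CDR length. The clones had been stained with 10% biotinylated, detergent-solubilized Sf9 membrane reagent for 1 hour at 4 °C and sorted by FACS into low and high (top ~1%) gates on anti-HA and streptavidin fluorescence. Polyreactivity labels come from the gate of origin.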

Row | Sequence | polyreactivity (PSR sort gate)
1 | QVQLVETGGGLVQAGRSLRLSCAASGSNFRSYARGWYRQAPGKERELVAAITSSSGSTDYADSVKGRFTSSRDNAKNTVYLQMNSLKPEDTAVYYCNAPYWKSRFRAYYHWGQGTQVTVSS | high polyreactivity
2 | QVQLVETGGGLVQAGVSHRLSFASSGSTFVEYVMGWYRQAPGKERELVARITWGGGITYYADSVKVRFTFSRDNAKNTVYLLMNRVNPEDNAVYYCAAGTITYGYGYDYWGQGTQVSVSS | low polyreactivity
3 | QVQLVETGGGLVQAGVSLRISCAASGRTFSVYTMGWYRQAPGKERELVAAIRGRGGSTYYADSVKGRFTISRDNAKNTVYLQMNSLKPEDTAVYYCAARASIFGATFDYWGQGTQVTVSS | high polyreactivity
4 | QVQLVETGGGLVQAGVSLRLSCAASGRIFEVNVMGWYRQAPGKERELVAAITTGGGSTYYADSVKGRFTISRDNAKNTVYLQMNSLKPEDTAVYYCATDYSSYLYDYYTGVGGYDYWGQGTQVTVSS | low polyreactivity
5 | QVQLVETGGGLVQARGSLRLSCAASGRTLPDNAMGWSRQAPGNESELVAAITTSGGSTYYADSVMGRFTISRDNAQNTVYLQLNSLKPEDTAVYYCAADIWQYSLIANYHPYDYWGQGTQVTVSS | low polyreactivity
6 | QVQLVETGGVLVQAGGSLRLSCAASGITFYRYAMGWYRQAPGKERELVATITSGVSTFYADSVKGRFTISRDNAKNTVYLQMKSLKQEDTAVYFCAAESVWNWYYTTAGMDYWGLGTQVTVSS | high polyreactivity
7 | QVQLVETGRGLLQAGGTLLLTCAASGSIYTYAMGWYKQAHGTQRELVAAISRSGGRTYYADSVKGRFTNSRDNAKNTVYLQMNSLKPEDTAVYYCAALLLKDYDYLGQGTQVTVSS | low polyreactivity
8 | QVQLVEYGAALVKAGGSLRLSCAPSGSIFDFYVMGWYRQAPGKERELVAAISSGGSTYYADSVKGRFTISRDNAKNTVYLQMNSLKPEDSAVYYCAAYPEYVSGAWYDYWGLGTQVTVSS | low polyreactivity
9 | QVQLVGSGGGLVQAGGSLRLSCAASGRIFSSSAMGWYRQAPGKERELVASIDWSDGSTYYADSVKGRFTISRDNAKNTVYLQRNSLKPEDTAVYYCAADFVPYLIYGYWGQGTQVTVSS | low polyreactivity
10 | QVQLVKSGGGLVQAGGSLRLICAASGSIFGYNTMGWYRQAPGKERELVATITYRGGSTYYADSVKGRFTISRDNAKNTVYLQMNSLKPEDTAVYYCARRVTRYPYTTWVSAGDYWGQGTQVTVSS | high polyreactivity
11 | QVQLVKSGGGLVQAGGSLRLSCAASGRIFVGYVMGWYRQAPGKERELVAAIDSGGRTNYADSVKGRFTISRDNAKNTVYLQMNSLKPEDTAVYYCNREAAHGSLRWTEMEYWGQGTQVTVSS | low polyreactivity
12 | QVQLVQSAVGLVQAGGSLRLICAASGITFLDNAMGWYRQAPGTERELVAAITSDGNPYYADCVKGRFTISRDNAKNTVYLQMNSLKPEDTAVYYCAVEVSDYYTYVSYDYCGQGTQVTVSS | low polyreactivity
13 | QVQLVQSGGGLVQAGGRLSLSCAASGYIFFTNAMGWYRQAPGKERELVAAISSAGRTKYADSVKGRFTISRDNAKNTVYIQMNSLIPEDTAVYYCNKSFYYRWGTGYDYWGQGTQVTVSS | low polyreactivity
14 | QVQLVQSGGGLVQAGGSLRLSCAASGGIFRTNPMGWYRQAPGQERALVATISRRGGSTYYADSVKGRFTISRDNAKNTVYFQMNSLKPEDTAVYYCAVEWYYTSNHIRFYRDNYWGQGTQVTVSS | high polyreactivity
15 | QVQLVQSGGGLVQAGGSLRLSCAASGRIFNYNAMGWYRQAPGKERELVAAINRSGVSTHYADSVKGRFTISRDNAKNTVYLQMNSLKPEDTAVYYCARTVYGARSYDYWGQGTQVTVSS | low polyreactivity
16 | QVQLVQSGGGLVQAGGSLRLSCAASGRIFPRYGMGWYRQAPGKERELCADITSSGSTYADSVKGRFTISRDNAKNTDYLQMHSLKPEDTAVYYCNALDRRLSYSWRYRQLYDYWGQGTQGTVSS | high polyreactivity
17 | QVQLVQSGGGLVQAGGSLRLSCAASGRNYSDNPMGWYRQAPGKERELVAANSSTGGTYYADSVKGRFTISRDNAKNTVYLQMNSLKPEDTAVYYCAARYRTLTKYYWGQGTQVSVSS | low polyreactivity
18 | QVQLVQSGGGLVQAGGSLRLSCAASGRPSLLMLWDGIDRRLGKKGSWLPLLTLVTPTTYADSVKGRFTISRDNAKNTVYLQMNSLKPEDTAVYYCNADFRPLDHYVNWYYYWGQGTQVTVSS | low polyreactivity
19 | QVQLVQSGGGLVQAGGSLRLSCAASGRTFGVYAMGWYRQAPGKERELVAAITWSGGSTYYADSVKGRFTISRDNAKNTVYLQMNSLKPEDTAVYYCAALTWLSGVKMGYWGQGTQVTVSS | high polyreactivity
20 | QVQLVQSGGGLVQAGGSLRLSCAASGSIFLYYVMGWYRQAPGQERELVAAITWDGGSTYYADSVKGRFTISRDNAKNTVYLQMNSLNPEDTAVYFCAARVASKYLVYRKRPSRYDYWGQGTQLTVSS | low polyreactivity
21 | QVQLVQSGGGLVQAGGSLRLSCAASGSTFPTNAMGSYRQAPGKERELVAAISSSGGRTYYADSVKGRFTISRDNAKKTDYLQRNSLKPEDTAVYYCAAVWWRAYAVRMYYWGQGTQVTVSS | high polyreactivity
22 | QVQLVQSGGGLVQAGGSLRLSCAASGSTFYYYGMRSYREAPGKEMELFASISWRGGSTYSADSVKGRYTISRDNAKNTVYLQMNSLKPEDTAVYYCAASRRPWYRAVTWNAGDYWGQGTQVTVSS | high polyreactivity

Row | Sequence | polyreactivity (PSR sort gate)
23 | QVQLVQSGGGLVQAGGSLRLSCAASGSTIAYKAMGWNRQAPGKEREMLAAISWRGGSTYYADSVKGRFTISRDNAKNTVYLQMKSLKPEDTAVYYCAKVYRAYTDVVRYGYWGQGSQVTVSS | high polyreactivity
24 | QVQLVQSGGGLVQAGGSLRLSCAASGYTFYVNTMGWYRKAPGKERELVAVISSGGRTNYADSVKGRFTISRDNAKNTVYLQMNSLKPEDTAVYYCAAIGWRTRYRFEYWGIGTQVTVSS | high polyreactivity
25 | QVQLVQSGGGLVQAGGSLRLSCADSGRTFTRYTMGWYRQAPGKERELVAAISSGGSTTYADSVKGRFTISRDNAKNTVYLQMNSLKPEDTAVYYCAAGLVYRGYRRDYWGQGTQVTVSS | low polyreactivity
26 | QVQLVQSGGGLVQAGGSLRLSCAPTGVIFRHNARGWYRQSPGKERELVAAISRSGGNTYYADSVKGRFTISRDNAKQTDYLQRNSLKPEDTAVYYSNKIEYDSWADHVYWGQGTQVTVSS | low polyreactivity
27 | QVQLVQTGGGLVQAGGSLRLSCAGSGSTFTSYVMGWYRQAPGKERELVAAITSSGGDTYYADSVKGRFTISRDNAKNTVYLQMNSVKPEDTAVYYCATRSYYRSSYYRNRYPYDYWGQGTQVTVSS | low polyreactivity
28 | QVQLVSGGGLVHSGGSLRLSCAASGITFESNAMGWYRQGPGKEREFVAAISYDGGDTYYADSVKGRFTISRDNAKNTVYLQMNSLKPDDTSVYYCAAETGWTMDYWGQGTQVTVSS | low polyreactivity
29 | QVQLVSGGGLVQAGGSLRLSCAASGRIFGTYAMGWYRQAPGKERELVAAITSGGSTYYADSVKGRFTISRDNAKNTVYLQMNSLKPEDSAVYYCAAEYAIWTHWGRYVTGNYWGQGTQVTVSS | high polyreactivity
30 | QVQLVVSGGGLDQARGSLSLSCAASGRNFTSYAMGWYRQAPWKERELVAAISWSVGSTYYADSVKGRFTISRDNAKNTVYLQMNSLKPEDTSVYYCNAVYPSVYPVSTRYYWGQGTQVTVSS | high polyreactivity
31 | QVQLVVSGGGLVHAGGSLRLSCAAYGFTVYKNTMGWYRQAPRKERELVAAISSSGSSTYYADTVKGRFTISRDNAKNTVYLQMNSLKPEDTAVYYCAAGRFAYHDDYWGQGTQVTVSS | high polyreactivity
32 | QVQLVVSGGGLVQAGGSLLLSCAASGFTFYSYAMGWYRQAPGKERELVAGISWSGTRTYYADSVKGRFTISRDNAKNTVYLQMISLKPEDTAVYYCAARGYRYGYGYWGQGTQVTVSS | high polyreactivity
33 | QVQLVVSGGGLVQAGGSLRLSCAASGGTFGGYAMGWYRQAPGKERELVAVITQRGGSTSYADSVKGRFTISRDNAKNTVYLQLNSQKREDTAVYYCNASAWLVVARTRYGYWGQGTQVTVSS | low polyreactivity
34 | QVQLVVSGGGLVQAGGSLRLSCAASGITFYYNAMGWYRQAPGKEGEVVAAITRRGGSTYYADSVKGRFTISRDNAKNTVYLQMNSLIPEDTAVYYCAKYIYGYKDSPLGDDYWGQGTQVTVSS | high polyreactivity
35 | QVQLVVSGGGLVQAGGSLRLSCAASGRTFRSNAMGWYRQAPGKERELVAAISRTGRTNYADSVKGRFTISRDTAKNTVYLQMNSLKPEDTAVYYCAARGYSVPRQERYDYWGQGTQVTVSS | high polyreactivity
36 | QVQLVVSGGGLVQAGGSLRLSCAASGRTFSIYAMGWYRQAPWKERELVAAISWSGGRTYYADSVKGRFTISRDNAKNTVYLLMNSLKPEDTAVYYCNKDWIYRGYDYWGQGTQVTVSS | high polyreactivity
37 | QVQLVVSGGGLVQAGGSLRLSCAASGSIFKKYAMGWYRQAPGKERELVAAITRGTYYADSVKGRFTISRDNAKNTVYLLMNSLNPEDTAVYYCNREYWVRGYYRVRGEYDYWGQGTQVTVSS | low polyreactivity
38 | QVQPQESGGGLVQAGGSLRLSCAASGTIFAFQTMGWYRQAPGKERELVASITYGSSTNYADSVKGRFTFSRDNANITVYVQMNSLKPEDTAVYYCAVPQAQYYYYYWGQGTQVTVSS | high polyreactivity
39 | QVQPVESGGGLVQAGGSLRLSCAASGRIFGDYAMGWYRQAPGKERELVAAINCSGTSTNYADSVKGRFTISRDNAKYTVYLEMNSLKPEFTAVYYCNAEGTYRPEYDSWVQGTQVTVSS | low polyreactivity
40 | QVQQQESGGGLVQAGGSLRLSCAASGTIFQLTVMGRYRQAPGKERELVASIDYGGNTNYADSVKGRFTISRDNAKKTVYLQKYIVKPEDTAVYYCAAYSDSWTTHPYWGQVTQVTVSS | low polyreactivity
41 | QVQQQESGGGLVQAGGSLRLSCAASGTIFQLTVMGRYRQAPGKERELVASIDYGGNTNYADSVKGRFTISRDNAKNTVYLQMNRLKPEDTAVYYCSASSDSWTTHPYWGQGTQVTVSS | low polyreactivity
42 | QVQQQESGGGLVQAGGSLRLSCAASGTIFQLTVMGRYRQAPGKERELVASIDYGGNTNYADSVKGRFTISRDNAKYTVYLLMISLKPEDTAVYYCAASSVSWTTHPYWGQGTQVTVSS | low polyreactivity
43 | QVQQQESGGGLVQAGGSLRLSSAASVTILYTLGLGLYRQAPGKTLEFVASITWGTTTNYAESVKGRFTISRDNAKNSVYLQMNSLKPEDTADYYCAARKFVYWYGMEYWGQGTQVTVSS | low polyreactivity
